Data taken from patent US20130303441.
Residue numbers refer to the chain shown, from its start. Numbers in names are those of the source.

T1: L803-mts, cell permeable variant of L803 with myristic acid attached to its N-terminal
T1 chain: GKEAPPAPPQSP

T2: p9CREB peptide substrate, ILSRRPS(p)YR
T2 chain: ILSRRPSYR

T3: pIRS-1 peptide substrate, RREGGMSRPAS(p)VDG
T3 chain: RREGGMSRPASVDG

T4: pGS-1 peptide substrate, YRRAAVPPSPSLSRHSSPSQS(p)EDEEE
T4 chain: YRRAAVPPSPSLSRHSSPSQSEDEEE

B1: wild-type (WT) GSK-3β (protein)
chain: MSGRPRTTSFAESCKPVQQPSAFGSMKVSRDKDGSKVTTVVATPGQGPDRPQEVSYTDTKVIGNGSFGVVYQAKLCDSGELVAIKKVLQDKRFKNRELQIMRKLDHCNIVRLRYFFYSSGEKKDEVYLNLVLDYVPETVYRVARHYSRAKQTLPVIYVKLYMYQLFRSLAYIHSFGICHRDIKPQNLLLDPDTAVLKLCDFGSAKQLVRGEPNVSYICSRYYRAPELIFGATDYTSSIDVWSAGCVLAELLLGQPIFPGDSGVDQLVEIIKVLGTPTREQIREMNPNYTEFKFPQIKAHPWTKDSSGTGHFTSGVRVFRPRTPPEAIALCSRLLEYTPTARLTPLEACAHSFFDELRDPNVKLPNGRDTPALFNFTTQELSSNPPLATILIPPHARIQAAASTPTNATAASDANTGDRGQTNNAASASASNST
B2: GSK-3β F93A mutant (protein)
chain: B1 chain with F93A
B3: GSK-3β K91A mutant (protein)
chain: B1 chain with K91A
B4: GSK-3β R92A mutant (protein)
chain: B1 chain with R92A
B5: GSK-3β D90A mutant (protein)
chain: B1 chain with D90A
B6: GSK-3β K94A mutant (protein)
chain: B1 chain with K94A

Biological target: T1, L803-mts, cell permeable variant of …

| Protein | in vitro kinase assays using pIRS-1, p9CREB and pGS-1 substrate in the presence or absence of L803-mts (100 µM) |
| --- | --- |
| B1 | L803-mts competes with various substrates |

Biological target: T2, p9CREB peptide substrate, ILSRRPS(p)YR

| Protein | Substrate phosphorylation (% of WTGSK-3β), in vitro kinase assay (% of WT GSK-3β) |
| --- | --- |
| B2 | 46 |
| B3 | 161 |
| B4 | 49 |
| B5 | 92 |
| B6 | 71 |

Biological target: T3, pIRS-1 peptide substrate, …

| Protein | Substrate phosphorylation (% of WTGSK-3β), in vitro kinase assay (% of WT GSK-3β) |
| --- | --- |
| B2 | 42 |
| B3 | 140 |
| B4 | 60 |
| B5 | 88 |
| B6 | 52 |

Biological target: T4, pGS-1 peptide substrate, …

| Protein | Substrate phosphorylation (% of WTGSK-3β), in vitro kinase assay (% of WT GSK-3β) |
| --- | --- |
| B2 | 13 |
| B3 | 119 |
| B4 | 41 |
| B5 | 83 |
| B6 | 19 |
